According to publication PMC8617505:

Tested on: CC1(C)S[C@@H]2[C@H](NC(=O)Cc3ccccc3)C(=O)N2[C@H]1C(=O)O
Experiment: purified protein

For (Escherichia coli), the Km was 27 ± 4 µM and the kcat/Km was 9e+06 ± 2e+06 M⁻¹ s⁻¹.

For (Mycobacterium tuberculosis H37Rv), the Km was 72.9 ± 0.8 µM and the kcat/Km was 640000 ± 10000 M⁻¹ s⁻¹.
